# Experimental data published in US20120252742A1.
# How the values were obtained:
# [1] = target: SIY peptide on H-2Kb (mouse); test: value stated in the legend of FIG. 16; method not given
# [2] = target: human immunodeficiency virus (HIV) Gag protein (SL9) peptide on HLA-A*02:01 (human); test: SL9 peptide titrated on T2 cells, stained with 100 nM multi-biotinylated scTCR (FIG. 11C); soluble, other
# [3] = target: SL9 (HIV-Gag)/HLA.A2 streptavidin:phycoerythrin tetramer (human immunodeficiency virus; human); test: cell-based or functional assay
# [4] = target: SIY peptide on H-2Kb (mouse); test: value cited from Chervin et al. 2009 (ref 18); method not given
# [5] = target: SIY peptide on K^b of antigen presenting cells (T2-K^b); test: cell-based or functional assay
# [6] = target: SIY peptide on H-2Kb (mouse); test: IL-2 release; transduced 58-/- cells, SIY peptide on T2-K^b (FIG. 17); fusion: CD28, CD3ζ, LCK
# [7] = target: SL9 peptide on HLA.A2 of peptide-loaded HLA.A2+ cells (T2) (human immunodeficiency virus; human); test: flow cytometry: SL9 peptide titrated on T2 cells, 100 nM biotinylated scTCR; the reference value is from the literature
# [8] = target: SL9 peptide on HLA.A2 of peptide-loaded HLA.A2+ cells (T2) (human immunodeficiency virus; human); test: flow cytometry: T2 cells loaded with 10 uM SL9, titration of biotinylated scTCR, streptavidin:PE
# [9] = target: SL9 peptide on HLA.A2 of peptide-loaded HLA.A2+ cells (T2) (human immunodeficiency virus; human); test: flow cytometry: T2 cells loaded with 10 uM SL9, biotinylated scTCR, streptavidin:PE
substance,measurement,setting,value
2C (full-length αβ TCR),Kd,[1],30 µM
868-Z11,lowest SL9 peptide concentration detected,[2],10 nM
"868-Z11 scTCR (Vβ-linker-Vα) fused to CD28, CD3ζ, LCK, on the surface of transduced T cells","T cell activation by plate-bound pepMHC tetramer, EC50",[3],4 nM
m33 (full-length αβ TCR),Kd,[1],0.03 µM
same,Kd,[4],16 nM
"m33 scTCR (Vα-linker-Vβ) fused to CD28, CD3ζ, LCK, on the surface of 58-/- T cell hybridoma","IL-2 release, lowest SIY peptide concentration that activates",[5],1 nM
m33 scTCR with 2C-T7 stabilizing mutations,lowest activating peptide concentration,[6],1 nM
"soluble, biotinylated 868-Z11 single-chain TCR expressed in E. coli (pET28a) and refolded",fold improvement in limit of detection relative to the full-length 868 TCR variant described by Varela-Rohena et al,[7],5 fold
same,EC50,[8],4 nM
same,lowest scTCR concentration at which peptide loaded cells were detected,[9],0.1 nM
